Drawing on the RNAGym collection of RNA variant scans (doi:10.7554/elife.80360), this text covers self-cleavage for 167 variants.

B1: Hairpin Ribozyme (parent)
chain: GUCCUCUUUCACGUGCGCGUGAAAGAGAGAAGUGAACCAGAGAAACACACGUUGUGGUAUAUUACCUGGUA

In the data set the parent is B1. The data set can be described thus: self-cleavage, relative activity (ratio to wild type); higher = more cleavage; co-transcriptional.
As for G15U A43C, the self-cleavage was determined as 0.195.

In the case of G17A G32U, the self-cleavage came out at 0.123.

Consider G17A G32C, for which the self-cleavage came out at 0.0599.

In the case of G17C G56U, the self-cleavage was determined as 0.185.

In the case of G17C G56C, the self-cleavage is 0.171.

As to C16A A64U, the self-cleavage came out at 0.14.

Consider G15U C46G, for which the self-cleavage stood at 0.167.

In the case of G15C U62G, the self-cleavage turned out to be 0.134.

As to G15C G57U, the self-cleavage is 0.282.

For the variant G15U U33G, the self-cleavage worked out at 0.18.

Turning to G15U U33A, the self-cleavage came out at 0.248.

For the variant G17A A31U, the self-cleavage came out at 0.105.

For the variant G17A A31G, the self-cleavage turned out to be 0.694.

For the variant C16G C18A, the self-cleavage is 1.03.

For the variant G17C A43G, the self-cleavage amounted to 0.131.

Take G17C A43C: the self-cleavage worked out at 0.118.

In the case of G17C G51A, the self-cleavage was 0.718.

On to G17C G51C, for which the self-cleavage was determined as 0.668.

As to C16A G25U, the self-cleavage came out at 0.589.

As for G17C C50A, the self-cleavage came to 0.248.

For the variant G17C C50U, the self-cleavage was 0.286.

As for C16A A47G, the self-cleavage was 0.197.

Regarding C16G A71U, the self-cleavage was found to be 0.552.

With G15U A26G, the self-cleavage turned out to be 0.895.

Regarding G15C G68U, the self-cleavage was determined as 0.235.

C16U A28U: the self-cleavage is 0.723.

C16U A28G: the self-cleavage amounted to 1.32.

As for G17A G68U, the self-cleavage was 0.243.

As for G17C A22U, the self-cleavage was 0.644.

C16G A47C: the self-cleavage turned out to be 0.293.

With C16G A39G, the self-cleavage was determined as 0.288.

Turning to C16G A39U, the self-cleavage worked out at 0.355.

For the variant C16A A35C, the self-cleavage worked out at 1.26.

Regarding C16A A35U, the self-cleavage was 0.789.

C16U G68A: the self-cleavage turned out to be 0.283.

C16A A26G: the self-cleavage amounted to 0.911.

Take C16A C65A: the self-cleavage came to 0.845.

On to C16A C65G, for which the self-cleavage was 0.255.

Take C16U U20G: the self-cleavage worked out at 1.01.

With G17C A31C, the self-cleavage was 0.172.

Consider G17C A31U, for which the self-cleavage was 0.0868.

For C16A G56A, the self-cleavage was found to be 0.0316.

As for C16U A26C, the self-cleavage is 0.839.

For C16G A36C, the self-cleavage was determined as 0.399.

For C16G A36G, the self-cleavage was 1.06.

For the variant G15U C16U, the self-cleavage was determined as 0.937.

G15U G68C: the self-cleavage is 0.137.

Take C16A C66G: the self-cleavage is 0.249.

As for G15U G32U, the self-cleavage came out at 0.144.

As to G15U G32A, the self-cleavage is 0.0947.

For the variant C16G G57C, the self-cleavage was 0.108.

On to C16U A47G, for which the self-cleavage is 0.16.

Regarding C16U A47C, the self-cleavage was 0.567.

For the variant G17C A30G, the self-cleavage amounted to 0.0659.

Consider G17C A30U, for which the self-cleavage was 0.118.

With G17A U62G, the self-cleavage stood at 0.0926.

Turning to G17A U62C, the self-cleavage was 0.166.

Consider G15U A36G, for which the self-cleavage turned out to be 1.25.

As for C16A A30C, the self-cleavage worked out at 0.134.

Take C16A A30U: the self-cleavage is 0.154.

For G17C A49C, the self-cleavage is 0.146.

For G17C A26G, the self-cleavage came to 0.709.

Turning to G17C A26U, the self-cleavage was 0.414.

On to C16U C48G, for which the self-cleavage was 0.108.

Take C16U C48U: the self-cleavage was 0.179.

On to G17A U60C, for which the self-cleavage was 1.36.

As to G17C G29C, the self-cleavage stood at 0.113.

With G17C U62A, the self-cleavage worked out at 0.115.

Take C16A G57C: the self-cleavage amounted to 0.127.

In the case of G15U A35G, the self-cleavage amounted to 0.933.

Turning to G15U A35C, the self-cleavage was 1.16.

For C16A A28G, the self-cleavage was 0.988.

For the variant C16A A28C, the self-cleavage is 0.569.

Take C16A A28U: the self-cleavage was found to be 0.611.

Take C16U C38U: the self-cleavage was 0.443.

Take C16U C38G: the self-cleavage stood at 0.206.

As for G15U U58C, the self-cleavage turned out to be 0.889.

As for G15C U67C, the self-cleavage is 0.2.

G15C U67A: the self-cleavage stood at 0.112.

On to C16U G51A, for which the self-cleavage worked out at 1.06.

Take G15U U62G: the self-cleavage came to 0.189.

Regarding G15U U62A, the self-cleavage was found to be 0.2.

As for G15U U62C, the self-cleavage was 0.461.

G17C A44C: the self-cleavage worked out at 0.136.

G17C A44G: the self-cleavage came to 0.121.

In the case of G15C G69U, the self-cleavage turned out to be 0.276.

Turning to G17A C50A, the self-cleavage is 0.21.

For the variant G15C U55G, the self-cleavage was determined as 0.487.

In the case of G15C U55A, the self-cleavage was 0.279.

Regarding G15C U55C, the self-cleavage came to 0.276.

For C16G C46U, the self-cleavage is 0.0715.

For G17C G27U, the self-cleavage was 0.116.

As for G17C G27C, the self-cleavage was 0.154.

Consider G17C G27A, for which the self-cleavage turned out to be 0.419.

C16A G27A: the self-cleavage amounted to 0.36.

As to C16U A71C, the self-cleavage came to 1.41.

In the case of C16A G34C, the self-cleavage came out at 1.44.

On to G15U U67A, for which the self-cleavage was found to be 0.206.

For G17C A71G, the self-cleavage was determined as 0.694.

Take G17C A71C: the self-cleavage is 1.18.

Turning to C16A A45U, the self-cleavage was determined as 0.176.

With G15U A71C, the self-cleavage stood at 1.53.

Consider C16U G19C, for which the self-cleavage was 0.867.

As for C16G U62G, the self-cleavage was found to be 0.181.

For C16G U62A, the self-cleavage is 0.168.

Turning to G17C A23C, the self-cleavage came to 0.603.

Regarding G17C A23U, the self-cleavage was found to be 0.572.

Turning to C16G G17A, the self-cleavage turned out to be 0.894.

With C16G G17C, the self-cleavage was 0.717.

For G15U U70C, the self-cleavage was 0.999.

On to G15C U60C, for which the self-cleavage amounted to 1.25.

In the case of G17C G32A, the self-cleavage turned out to be 0.131.

As for G17C G32U, the self-cleavage turned out to be 0.0811.

Regarding C16G U60C, the self-cleavage stood at 1.06.

On to C16G U60A, for which the self-cleavage came out at 0.62.

In the case of G15U A31C, the self-cleavage came to 0.118.

For G17C C65G, the self-cleavage was 0.339.

Consider G17C C65U, for which the self-cleavage came to 0.24.

Take C16U G25A: the self-cleavage stood at 0.668.

Turning to G15U G17U, the self-cleavage amounted to 1.06.

With G15U A44C, the self-cleavage is 0.145.

Take C16G G34U: the self-cleavage was 1.34.

Turning to C16G G34A, the self-cleavage was found to be 0.883.

Consider G17C A35C, for which the self-cleavage worked out at 1.04.

Take G17C A35G: the self-cleavage stood at 0.801.

For the variant G17C G25U, the self-cleavage amounted to 0.505.

As to G17C G25A, the self-cleavage stood at 0.417.

Take G15U A59C: the self-cleavage was determined as 0.11.

As for C16A C38U, the self-cleavage is 0.577.

On to C16G A24C, for which the self-cleavage was determined as 0.688.

For C16G A24U, the self-cleavage was 0.69.

With C16G U70G, the self-cleavage worked out at 0.508.

As for G17A A44C, the self-cleavage amounted to 0.119.

Take G17A A44G: the self-cleavage was found to be 0.233.

As for G15U G42C, the self-cleavage came out at 0.44.

C16U A43G: the self-cleavage was found to be 0.0631.

As to C16U A43U, the self-cleavage came to 0.134.

Consider G17C C66U, for which the self-cleavage was 0.346.

With G17C G40A, the self-cleavage came out at 0.253.

Take G17C G40C: the self-cleavage turned out to be 0.168.

Take G17A A23U: the self-cleavage came to 0.892.

As to G17A A23C, the self-cleavage amounted to 0.987.

Regarding C16U A64U, the self-cleavage amounted to 0.162.

Turning to G17C C37U, the self-cleavage was determined as 0.542.

With G17A A22U, the self-cleavage amounted to 0.892.

With G17A A22C, the self-cleavage came to 0.866.

Consider G17A A22G, for which the self-cleavage was 1.12.

Consider G17U A30G, for which the self-cleavage worked out at 0.134.

As for G17A U58G, the self-cleavage worked out at 0.78.

As for G17A U58C, the self-cleavage stood at 0.869.

In the case of C16U G40A, the self-cleavage was 0.276.

C16U G40C: the self-cleavage was 0.11.

For the variant C16A G54A, the self-cleavage worked out at 0.388.

On to C16A U58A, for which the self-cleavage is 0.597.

As to G17C C48A, the self-cleavage came out at 0.173.

For the variant C16A U33C, the self-cleavage was 0.2.

Regarding G17A A35G, the self-cleavage was determined as 1.2.

As to G17A A35C, the self-cleavage was found to be 0.945.

Take C16A C18A: the self-cleavage amounted to 1.14.

As to C16U A23U, the self-cleavage was 0.992.

Consider C16U A23C, for which the self-cleavage came out at 1.03.

G17A C18A: the self-cleavage was 1.2.

As to G15U U55G, the self-cleavage is 0.302.

G15U U55C: the self-cleavage stood at 0.306.

Regarding G17A A64C, the self-cleavage stood at 0.143.

As to G17A G57A, the self-cleavage was 0.228.

Regarding G17A G57U, the self-cleavage worked out at 0.301.
